In paper PMC5555194 one finds Kd data, which are given here for four substances.

Several values for one entry are separate records, joined by “and”; a condition that tells them apart may be missing. Equal entries are not always repeated.

The assay deals with C3b (human) (UniProt P01024). The assay can be described thus: SPR; C3b amine-coupled to a Biacore C1 chip; dilution series of CFH (from 2.5 to 0.019 uM), preincubated with or without a 2-fold molar excess of PspCN, flowed over; Biacore T200, 25 °C, 10 mM HEPES, 150 mM NaCl, 0.05% P20; 1:1 steady-state model; three experiments on different chips. For orientation: SPR reads the build-up and loss of mass on a sensor chip optically.
Sequence of C3b (human) (P01024 23-667, chain 1 of 2): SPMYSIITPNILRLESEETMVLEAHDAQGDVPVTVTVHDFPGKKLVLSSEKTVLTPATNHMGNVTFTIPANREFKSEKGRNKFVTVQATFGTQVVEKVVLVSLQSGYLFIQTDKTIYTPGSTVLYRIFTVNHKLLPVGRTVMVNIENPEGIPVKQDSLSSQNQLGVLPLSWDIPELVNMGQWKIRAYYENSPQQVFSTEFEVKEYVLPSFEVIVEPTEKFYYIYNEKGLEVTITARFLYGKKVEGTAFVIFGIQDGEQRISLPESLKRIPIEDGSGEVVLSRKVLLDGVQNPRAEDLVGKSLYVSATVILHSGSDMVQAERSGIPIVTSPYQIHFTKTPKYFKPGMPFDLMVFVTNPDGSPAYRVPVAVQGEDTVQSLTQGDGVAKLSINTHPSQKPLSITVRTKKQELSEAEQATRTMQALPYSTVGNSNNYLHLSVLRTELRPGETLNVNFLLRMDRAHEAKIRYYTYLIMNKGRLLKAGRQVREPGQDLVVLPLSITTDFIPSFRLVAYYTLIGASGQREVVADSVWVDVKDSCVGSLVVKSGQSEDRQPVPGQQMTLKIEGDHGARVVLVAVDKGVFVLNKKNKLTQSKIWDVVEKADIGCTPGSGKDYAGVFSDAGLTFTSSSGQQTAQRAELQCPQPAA
Sequence of C3b (human) (P01024 749-1663, chain 2 of 2): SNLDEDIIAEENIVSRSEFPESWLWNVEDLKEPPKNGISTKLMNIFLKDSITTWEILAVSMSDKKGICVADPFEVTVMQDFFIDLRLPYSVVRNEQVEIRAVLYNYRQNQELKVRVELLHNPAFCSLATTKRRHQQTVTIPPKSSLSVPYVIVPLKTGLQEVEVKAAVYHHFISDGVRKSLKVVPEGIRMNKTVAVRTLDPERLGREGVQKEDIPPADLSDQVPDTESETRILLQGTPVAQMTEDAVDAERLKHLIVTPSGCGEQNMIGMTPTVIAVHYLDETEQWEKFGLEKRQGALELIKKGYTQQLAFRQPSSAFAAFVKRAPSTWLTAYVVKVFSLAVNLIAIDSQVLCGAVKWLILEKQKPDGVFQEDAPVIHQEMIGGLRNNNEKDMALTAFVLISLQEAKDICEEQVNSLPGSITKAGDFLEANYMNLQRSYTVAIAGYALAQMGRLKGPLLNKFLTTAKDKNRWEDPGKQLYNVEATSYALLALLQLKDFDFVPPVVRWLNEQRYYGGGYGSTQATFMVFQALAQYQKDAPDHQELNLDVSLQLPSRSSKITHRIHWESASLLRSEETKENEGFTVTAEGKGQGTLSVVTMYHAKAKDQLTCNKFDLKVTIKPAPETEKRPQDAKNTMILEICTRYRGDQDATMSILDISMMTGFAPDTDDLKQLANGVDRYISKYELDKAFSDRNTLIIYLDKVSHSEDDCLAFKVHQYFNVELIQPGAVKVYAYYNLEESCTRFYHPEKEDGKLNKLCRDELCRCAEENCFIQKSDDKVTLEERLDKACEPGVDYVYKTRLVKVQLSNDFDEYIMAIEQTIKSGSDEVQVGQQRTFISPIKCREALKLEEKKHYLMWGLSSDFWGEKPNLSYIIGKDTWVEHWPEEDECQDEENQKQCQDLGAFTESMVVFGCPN
As usually defined, the Kd is the constant that tells how readily two partners part at equilibrium. A low value points to tighter binding. “CFH purified from human plasma (plasma CFH) (from UniProt P08603 19-1231) (natural protein)” came in with a dissociation constant (Kd) of 330 nM. As for “I62-CFH–PspCN complex (from UniProt P08603 19-1231; Q9KK19 37-140)”, the equilibrium dissociation constant (Kd) is 620 nM and 500 nM. Under “LA-CFH–PspCN complex (from UniProt P08603 19-1231; Q9KK19 37-140)” stands 700 nM and 600 nM; under “R53H-CFH–PspCN complex (from UniProt P08603 19-1231; Q9KK19 37-140)”, 1000 nM and 580 nM.
